Kd data for one molecule are collected here from paper PMC1326249.

The target in this data set is U1A N-terminal RRM wild type (human, UniProt P09012 2-98). In words: SPR. Background: Surface plasmon resonance follows binding to a sensor surface in real time, without labels.
U1A N-terminal RRM wild type, sequence (P09012 2-98): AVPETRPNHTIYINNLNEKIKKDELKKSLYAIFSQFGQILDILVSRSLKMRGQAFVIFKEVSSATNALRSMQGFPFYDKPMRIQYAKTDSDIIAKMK

B1: U1hpII (structured_RNA)
RNA: AGCUUAUCCAUUGCACUCCGGAUAAGCU
On to B1, for which the Kd was determined as 0.07 nM. This counts as picomolar.

As a reminder, the Kd is the equilibrium constant for the complex coming apart. Lower therefore signals higher affinity.
